Target: the molecule itself
Assay: non-reducing SDS-PAGE with Western blot

B1: Recombinant human Prx2 (peroxiredoxin 2) (enzyme, UniProt P32119 2-198, looked up)
chain: ASGNARIGKPAPDFKATAVVDGAFKEVKLSDYKGKYVVLFFYPLDFTFVCPTEIIAFSNRAEDFRKLGCEVLGVSVDSQFTHLAWINTPRKEGGLGPLNIPLLADVTRRLSEDYGVLKTDEGIAYRGLFIIDGKGVLRQITVNDLPVGRSVDEALRLVQAFQYTDEHGEVCPAGWKPGSDTIKPNVDDSKEYFSKHN
stoichiometry N: 2

Source: publication PMC6938701 (Science Advances, 2020)
